Data reported in the supplement of paper PMC9876800.

Tested on: peptide library, one residue held at a place counted from the S/T acceptor
Assay: relative phosphorylation of the sub-library (ratio to the mean residue at this position); higher = residue favoured
Details: human
Outline: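 In 384-well plates, purified recombinant kinases (human or orthologue constructs) were incubated for 90 min under kinase-specific conditions with 50 μM biotinylated degenerate peptide sub-libraries and 50 μM ATP spiked with γ-32P-ATP. Each sub-library fixed a single residue at one position around a central Ser/Thr. Relative sub-library phosphorylation, measured by phosphorimaging and densitometry of streptavidin membrane spots, is given as a ratio to the mean residue at that position.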

Chain of WNK3, construct: aa1-434 (Q9BYP7 1-434, looked up): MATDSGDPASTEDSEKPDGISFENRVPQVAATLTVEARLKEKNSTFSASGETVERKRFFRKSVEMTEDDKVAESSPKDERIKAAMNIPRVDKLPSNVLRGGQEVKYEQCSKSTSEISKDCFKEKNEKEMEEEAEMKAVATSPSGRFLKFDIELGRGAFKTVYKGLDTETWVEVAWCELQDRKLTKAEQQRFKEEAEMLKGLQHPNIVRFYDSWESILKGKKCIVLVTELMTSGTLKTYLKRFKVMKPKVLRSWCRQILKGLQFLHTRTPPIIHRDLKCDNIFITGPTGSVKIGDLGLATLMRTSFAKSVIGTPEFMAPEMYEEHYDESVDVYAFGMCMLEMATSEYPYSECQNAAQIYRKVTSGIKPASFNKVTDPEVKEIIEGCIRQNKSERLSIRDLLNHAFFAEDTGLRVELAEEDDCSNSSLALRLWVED
Chain of TGFBR1, construct: aa20-end (P36897 20-503, looked up): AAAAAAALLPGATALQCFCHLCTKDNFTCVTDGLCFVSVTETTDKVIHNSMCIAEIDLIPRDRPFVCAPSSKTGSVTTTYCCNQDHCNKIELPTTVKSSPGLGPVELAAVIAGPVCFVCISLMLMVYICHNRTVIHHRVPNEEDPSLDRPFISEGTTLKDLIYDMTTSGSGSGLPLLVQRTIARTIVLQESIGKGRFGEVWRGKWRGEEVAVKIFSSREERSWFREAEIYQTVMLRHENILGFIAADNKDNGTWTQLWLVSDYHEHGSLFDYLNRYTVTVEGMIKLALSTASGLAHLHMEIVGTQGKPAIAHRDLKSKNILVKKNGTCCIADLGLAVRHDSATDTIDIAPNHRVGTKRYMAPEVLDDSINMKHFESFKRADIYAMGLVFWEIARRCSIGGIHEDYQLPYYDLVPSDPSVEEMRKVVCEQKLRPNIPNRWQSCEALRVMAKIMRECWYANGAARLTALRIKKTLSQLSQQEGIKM
Chain of STK4, construct: Full length (Q13043 whole entry, looked up): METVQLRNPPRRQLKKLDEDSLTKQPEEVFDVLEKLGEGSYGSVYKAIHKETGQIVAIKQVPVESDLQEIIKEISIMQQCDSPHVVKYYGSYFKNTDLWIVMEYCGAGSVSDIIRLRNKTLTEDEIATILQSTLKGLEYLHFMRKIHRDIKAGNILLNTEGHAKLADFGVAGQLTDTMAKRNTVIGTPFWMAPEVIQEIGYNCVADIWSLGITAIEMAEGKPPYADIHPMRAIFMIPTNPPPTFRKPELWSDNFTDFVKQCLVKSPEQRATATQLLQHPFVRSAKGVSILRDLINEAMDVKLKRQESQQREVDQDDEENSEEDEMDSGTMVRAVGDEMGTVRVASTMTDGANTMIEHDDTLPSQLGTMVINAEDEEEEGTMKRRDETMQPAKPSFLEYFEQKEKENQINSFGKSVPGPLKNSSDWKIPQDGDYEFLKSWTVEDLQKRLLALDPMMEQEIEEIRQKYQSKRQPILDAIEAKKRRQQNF
Chain of SMG1, construct: Full length (Q96Q15 whole entry, looked up): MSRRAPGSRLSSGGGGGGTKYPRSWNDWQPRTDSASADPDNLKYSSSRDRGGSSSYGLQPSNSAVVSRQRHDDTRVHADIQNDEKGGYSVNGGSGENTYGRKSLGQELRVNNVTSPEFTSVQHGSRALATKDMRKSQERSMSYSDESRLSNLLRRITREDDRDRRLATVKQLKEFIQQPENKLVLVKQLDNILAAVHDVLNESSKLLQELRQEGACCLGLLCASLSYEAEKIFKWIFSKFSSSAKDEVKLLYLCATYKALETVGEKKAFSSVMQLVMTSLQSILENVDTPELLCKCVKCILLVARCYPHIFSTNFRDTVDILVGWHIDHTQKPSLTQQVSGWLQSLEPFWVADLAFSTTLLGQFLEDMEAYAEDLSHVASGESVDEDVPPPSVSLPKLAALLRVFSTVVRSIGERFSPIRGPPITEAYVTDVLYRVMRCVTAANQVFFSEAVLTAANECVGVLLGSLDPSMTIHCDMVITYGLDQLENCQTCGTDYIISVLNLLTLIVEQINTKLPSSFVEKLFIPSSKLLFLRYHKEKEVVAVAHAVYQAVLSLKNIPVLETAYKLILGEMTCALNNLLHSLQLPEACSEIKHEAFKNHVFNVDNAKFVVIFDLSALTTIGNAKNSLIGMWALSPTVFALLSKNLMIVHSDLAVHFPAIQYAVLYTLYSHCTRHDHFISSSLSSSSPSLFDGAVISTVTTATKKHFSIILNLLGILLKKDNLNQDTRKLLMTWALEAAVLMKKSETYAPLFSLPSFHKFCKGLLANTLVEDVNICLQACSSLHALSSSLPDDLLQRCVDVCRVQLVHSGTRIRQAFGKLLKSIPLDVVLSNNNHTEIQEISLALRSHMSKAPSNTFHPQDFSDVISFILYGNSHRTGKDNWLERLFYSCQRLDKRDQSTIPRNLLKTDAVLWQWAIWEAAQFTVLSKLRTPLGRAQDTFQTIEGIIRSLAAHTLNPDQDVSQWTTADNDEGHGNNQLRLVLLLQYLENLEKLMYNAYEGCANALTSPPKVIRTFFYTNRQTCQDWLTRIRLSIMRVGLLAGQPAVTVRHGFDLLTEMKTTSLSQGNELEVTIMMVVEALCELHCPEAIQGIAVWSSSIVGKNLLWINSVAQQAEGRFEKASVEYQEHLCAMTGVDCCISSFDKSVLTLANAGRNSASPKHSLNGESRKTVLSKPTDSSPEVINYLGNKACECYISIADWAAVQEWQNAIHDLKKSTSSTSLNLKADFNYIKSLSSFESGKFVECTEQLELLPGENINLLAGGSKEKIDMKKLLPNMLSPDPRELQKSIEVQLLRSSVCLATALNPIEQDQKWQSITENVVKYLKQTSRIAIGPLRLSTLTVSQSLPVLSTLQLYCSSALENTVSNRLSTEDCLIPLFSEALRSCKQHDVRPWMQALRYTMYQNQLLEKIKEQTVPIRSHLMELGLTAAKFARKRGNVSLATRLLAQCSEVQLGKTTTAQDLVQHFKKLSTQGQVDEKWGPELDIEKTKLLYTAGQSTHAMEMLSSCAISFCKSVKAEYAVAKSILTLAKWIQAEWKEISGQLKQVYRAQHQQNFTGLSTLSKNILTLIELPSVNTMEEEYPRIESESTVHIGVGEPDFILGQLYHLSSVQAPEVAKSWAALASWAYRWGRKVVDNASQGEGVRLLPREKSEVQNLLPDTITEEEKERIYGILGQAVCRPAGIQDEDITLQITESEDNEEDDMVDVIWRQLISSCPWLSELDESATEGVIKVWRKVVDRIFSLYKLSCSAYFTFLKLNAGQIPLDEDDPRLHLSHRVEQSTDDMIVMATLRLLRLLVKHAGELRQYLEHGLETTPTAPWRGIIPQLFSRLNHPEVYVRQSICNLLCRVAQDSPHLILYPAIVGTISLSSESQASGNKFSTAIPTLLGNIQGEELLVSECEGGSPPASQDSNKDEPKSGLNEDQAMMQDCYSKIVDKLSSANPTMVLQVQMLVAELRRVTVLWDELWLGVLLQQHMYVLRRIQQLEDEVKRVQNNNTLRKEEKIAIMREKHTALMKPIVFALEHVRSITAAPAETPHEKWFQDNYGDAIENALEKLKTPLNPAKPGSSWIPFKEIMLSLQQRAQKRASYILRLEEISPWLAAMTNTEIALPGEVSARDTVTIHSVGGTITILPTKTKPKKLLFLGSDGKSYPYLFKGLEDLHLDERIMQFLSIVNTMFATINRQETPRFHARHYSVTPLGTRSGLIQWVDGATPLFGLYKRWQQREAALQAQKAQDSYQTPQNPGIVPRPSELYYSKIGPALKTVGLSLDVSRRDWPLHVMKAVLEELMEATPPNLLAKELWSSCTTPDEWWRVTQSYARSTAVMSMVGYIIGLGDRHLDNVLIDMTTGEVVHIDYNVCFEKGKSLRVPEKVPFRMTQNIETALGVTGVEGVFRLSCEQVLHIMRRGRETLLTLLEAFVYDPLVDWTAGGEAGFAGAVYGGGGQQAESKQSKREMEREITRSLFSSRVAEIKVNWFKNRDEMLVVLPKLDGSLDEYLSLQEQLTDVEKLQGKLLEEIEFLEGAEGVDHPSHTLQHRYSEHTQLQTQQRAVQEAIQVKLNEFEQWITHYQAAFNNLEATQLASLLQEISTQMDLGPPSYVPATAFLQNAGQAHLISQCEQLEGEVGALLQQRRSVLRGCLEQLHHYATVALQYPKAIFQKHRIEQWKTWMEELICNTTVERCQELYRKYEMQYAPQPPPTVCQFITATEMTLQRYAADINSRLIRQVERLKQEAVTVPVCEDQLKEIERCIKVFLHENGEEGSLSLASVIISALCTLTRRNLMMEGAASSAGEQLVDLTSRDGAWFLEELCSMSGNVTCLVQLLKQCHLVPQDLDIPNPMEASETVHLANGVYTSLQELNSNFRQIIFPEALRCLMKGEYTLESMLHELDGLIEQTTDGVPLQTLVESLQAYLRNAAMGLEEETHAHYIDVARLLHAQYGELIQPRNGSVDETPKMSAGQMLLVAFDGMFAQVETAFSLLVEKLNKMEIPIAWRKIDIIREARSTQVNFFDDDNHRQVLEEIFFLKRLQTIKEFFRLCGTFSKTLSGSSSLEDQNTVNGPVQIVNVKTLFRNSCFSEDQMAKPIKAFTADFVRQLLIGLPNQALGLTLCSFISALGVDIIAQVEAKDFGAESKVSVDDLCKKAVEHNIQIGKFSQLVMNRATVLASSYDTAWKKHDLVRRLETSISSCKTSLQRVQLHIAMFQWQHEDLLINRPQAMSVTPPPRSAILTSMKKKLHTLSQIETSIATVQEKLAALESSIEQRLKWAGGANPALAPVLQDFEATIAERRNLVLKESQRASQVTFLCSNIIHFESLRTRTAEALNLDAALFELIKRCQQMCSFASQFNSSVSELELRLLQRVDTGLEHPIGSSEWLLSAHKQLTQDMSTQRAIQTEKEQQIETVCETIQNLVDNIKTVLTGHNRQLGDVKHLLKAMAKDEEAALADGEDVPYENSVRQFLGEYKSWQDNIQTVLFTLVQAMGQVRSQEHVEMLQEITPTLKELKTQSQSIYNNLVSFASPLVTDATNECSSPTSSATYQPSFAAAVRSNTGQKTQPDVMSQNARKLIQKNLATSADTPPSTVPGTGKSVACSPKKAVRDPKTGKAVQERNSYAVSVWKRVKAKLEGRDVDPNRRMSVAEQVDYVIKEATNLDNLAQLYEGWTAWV

SMG1, construct: Full length (from UniProt Q96Q15)
relative phosphorylation
Details	at +1	at +2	at +3	at +4	at -1	at -2	at -3	at -4	at -5
A fixed	0.603	0.979	1.02	0.957	0.855	1.26	1.21	1.23	1.18
D fixed	0.453	1.12	1.33	0.91	0.348	0.521	0.669	0.674	0.649
E fixed	0.336	0.964	1.15	0.799	0.298	0.645	0.836	0.829	0.693
F fixed	0.533	0.966	1.12	1.28	1.35	1.25	1.44	1.3	1.39
G fixed	0.603	0.924	0.974	0.933	0.646	1.29	1.03	1.26	1.28
H fixed	0.522	0.991	0.858	1.06	0.939	1.04	0.972	1.02	1.07
I fixed	0.539	0.841	0.899	0.883	0.662	1.08	0.874	0.926	0.924
K fixed	0.581	0.711	0.62	0.779	0.725	0.698	0.604	0.614	0.67
L fixed	0.739	0.889	0.853	0.943	4.37	1.2	0.965	1.01	0.958
M fixed	0.55	1.03	1.07	1	2.27	1.26	1.33	1.08	1.03
N fixed	0.841	0.832	0.854	0.806	0.722	0.82	0.766	0.73	0.701
P fixed	0.567	1.39	0.996	1.12	0.558	0.807	0.817	0.855	1
Q fixed	7.53	1.13	0.832	0.867	0.822	0.877	0.83	0.766	0.729
R fixed	0.875	0.818	0.931	0.85	0.615	0.751	0.687	0.677	0.781
V fixed	0.567	0.946	0.913	0.881	0.474	0.996	0.912	0.93	0.964
W fixed	0.545	1.26	1.31	1.53	0.53	1.08	1.36	1.55	1.6
Y fixed	0.613	1.2	1.28	1.39	0.823	1.42	1.7	1.55	1.38
pThr fixed	0.386	1.04	1.82	1.03	0.365	0.661	0.999	1.11	1.1
pTyr fixed	0.416	0.704	1.06	1.41	0.539	1.27	1.71	1.65	1.47

STK4, construct: Full length (from UniProt Q13043)
relative phosphorylation
Details	at +1	at +2	at +3	at +4	at -1	at -2	at -3	at -4	at -5
A fixed	0.647	0.612	0.745	0.743	0.705	0.763	0.756	0.771	0.964
D fixed	0.276	0.533	0.669	0.779	1.43	1.46	1.24	1.07	1.35
E fixed	0.245	0.413	0.627	0.668	0.881	1.09	0.916	1.12	0.833
F fixed	0.995	0.677	0.965	0.892	0.877	1.66	1.05	1.02	0.98
G fixed	0.641	0.75	0.917	0.987	1.1	0.747	1.07	0.983	0.91
H fixed	0.703	1.33	1.12	1.05	1.26	1.15	1.06	1.27	1.04
I fixed	1.91	0.449	0.682	0.738	0.329	0.507	0.622	0.766	0.581
K fixed	0.639	3.53	1.85	1.5	1.93	0.591	0.963	1.08	1.15
L fixed	2.6	0.759	0.779	1.01	0.822	0.596	0.577	0.749	0.773
M fixed	2.59	0.588	0.673	0.918	0.735	1	0.658	0.742	0.757
N fixed	0.558	1.13	1.21	1.24	1.45	1.28	1.25	1.06	1.02
P fixed	0.196	0.926	1.19	1.13	0.897	0.681	0.992	0.674	1.33
Q fixed	0.685	1.23	1.07	1.3	1.17	1.03	1.35	1.34	1.24
R fixed	0.615	2.29	2.01	1.19	1.33	0.582	0.78	1.01	1.08
V fixed	1.08	0.779	0.702	0.789	0.397	0.561	0.646	0.954	0.861
W fixed	1.79	0.495	0.884	1.27	0.776	1.59	1.63	1.17	1.09
Y fixed	0.816	0.524	0.898	0.793	0.926	1.72	1.45	1.24	1.05
pThr fixed	0.822	1.04	0.958	0.825	0.594	1.02	0.978	0.889	0.769
pTyr fixed	0.627	0.715	0.937	0.899	0.908	2.04	1.39	0.975	1.09

STK17A, construct: Full length (from UniProt Q9UEE5)
relative phosphorylation
Details	at +1	at +2	at +3	at +4	at -1	at -2	at -3	at -4	at -5
A fixed	0.4	0.562	0.679	0.808	0.636	1.04	0.701	0.927	0.979
D fixed	0.954	0.564	0.686	0.86	0.85	0.657	0.799	1.06	0.922
E fixed	0.984	0.612	1.18	0.917	0.967	0.597	0.681	1.09	0.916
F fixed	4.75	0.832	1.05	0.896	1.11	0.943	0.802	0.772	0.876
G fixed	0.63	0.444	0.889	0.868	0.801	1.2	0.868	1.23	1.11
H fixed	0.502	1.83	1.12	1.15	1.16	1.25	1.02	1.03	1.06
I fixed	0.75	0.709	1.49	0.742	0.621	0.491	0.65	0.586	0.721
K fixed	0.498	1.7	1.08	1.49	1.23	1.32	1.28	1.43	1.63
L fixed	0.678	0.732	0.989	0.713	1.24	0.648	0.783	0.62	0.872
M fixed	1.41	0.787	0.984	0.669	1.19	0.892	1.13	0.798	0.837
N fixed	0.558	0.93	0.733	0.988	1.06	1.05	0.902	1	1.06
P fixed	0.251	0.332	0.539	0.952	0.589	0.673	0.888	0.979	0.993
Q fixed	1.66	1.09	0.815	1	0.931	0.934	0.989	0.782	0.704
R fixed	0.494	2.6	1.17	1.7	1.18	1.8	2.58	1.32	1.38
V fixed	0.53	0.708	1.04	0.693	0.721	0.638	0.56	0.73	0.829
W fixed	0.974	1.16	1.2	1.33	1.07	1.83	1.43	1.81	1.16
Y fixed	0.972	1.41	1.37	1.23	1.64	1.04	0.945	0.842	0.947
pThr fixed	6.24	3.31	1.2	1.45	0.813	0.788	0.9	0.977	0.971
pTyr fixed	1.4	1.6	3.08	1.39	1.61	0.941	1.06	1.17	0.918

TGFBR1, construct: aa20-end (from UniProt P36897)
relative phosphorylation
Details	at +1	at +2	at +3	at +4	at -1	at -2	at -3	at -4	at -5
A fixed	0.823	1.16	0.888	0.966	0.853	0.688	0.982	1.11	1.12
D fixed	1.69	1.71	1.48	1.29	1.42	1.62	1.5	1.39	1.15
E fixed	2.27	1.57	1.94	1.55	1.78	7.31	1.73	1.22	1.21
F fixed	1	1.05	0.773	0.942	0.858	0.397	0.748	0.805	0.908
G fixed	0.779	1.13	1.63	1.2	0.834	0.712	1.19	1.33	1.1
H fixed	1.15	0.728	0.792	0.846	0.968	0.513	0.894	0.991	0.944
I fixed	1.03	1.07	0.954	1.01	0.86	0.474	0.814	0.96	0.929
K fixed	0.396	0.545	0.448	0.59	0.5	0.4	0.598	0.719	0.892
L fixed	0.751	0.706	0.899	0.908	1.18	0.486	0.841	0.943	0.878
M fixed	1.25	0.915	0.916	0.871	1.35	0.545	1.1	1.02	0.983
N fixed	0.733	0.874	0.809	0.879	1.06	0.767	1.06	1.15	1.31
P fixed	0.522	1.07	1.32	1.32	0.592	0.459	0.982	1.09	1.03
Q fixed	0.826	0.717	0.794	0.834	1.04	0.893	0.992	0.865	0.917
R fixed	0.357	0.489	0.467	0.519	0.589	0.435	0.633	0.697	0.844
V fixed	1.05	1.18	1.02	0.959	1.26	0.501	0.924	1.02	0.978
W fixed	0.919	0.954	0.915	1.27	0.804	0.4	1.2	0.787	0.822
Y fixed	1.44	1.12	0.956	1.03	1.04	0.401	0.815	0.89	0.98
pThr fixed	3.78	1.38	1.04	1.62	1.19	1.48	1.07	0.963	0.853
pTyr fixed	4.22	1.82	1.39	1.66	1.51	0.639	1.08	1.05	0.835

WNK3, construct: aa1-434 (from UniProt Q9BYP7)
relative phosphorylation
Details	at +1	at +2	at +3	at +4	at -1	at -2	at -3	at -4	at -5
A fixed	0.622	0.792	0.655	0.69	0.647	1.05	0.84	0.962	0.856
D fixed	0.416	0.7	0.675	0.609	0.462	0.409	0.519	0.598	0.749
E fixed	0.359	0.496	0.64	0.647	0.6	0.361	0.552	0.766	0.91
F fixed	1.36	1.09	1.43	1.25	0.983	0.865	0.748	0.843	1.14
G fixed	0.784	0.939	0.674	0.771	0.605	1.41	0.728	0.853	0.972
H fixed	1.02	0.981	1.31	1.01	1.11	1.56	1.44	1.3	1.24
I fixed	1.19	1.59	1.09	1.38	0.924	0.746	0.95	0.836	0.879
K fixed	0.825	0.772	1	1	1.51	1.19	1.7	1.37	1.39
L fixed	1.61	1.5	1.32	1.29	1.26	0.8	0.862	0.858	0.753
M fixed	1.84	1.54	1.29	1.41	1.49	0.852	1.16	0.894	0.861
N fixed	0.937	0.654	0.747	0.682	0.799	0.815	0.795	0.973	0.968
P fixed	0.278	0.356	0.441	0.626	0.428	1.24	0.794	0.8	0.702
Q fixed	1.16	0.608	0.648	0.677	1.22	0.768	1.11	0.901	0.986
R fixed	1.16	1.64	0.994	0.959	1.53	1.85	1.87	1.77	1.69
V fixed	1.03	1.28	0.994	1.35	1.09	1.07	0.871	0.957	0.818
W fixed	1.06	0.946	1.59	1.4	1.15	1.01	1.01	1.14	0.974
Y fixed	1.33	1.12	1.51	1.24	1.2	0.997	1.06	1.19	1.12
pThr fixed	0.485	0.521	0.513	0.543	0.566	0.779	0.812	0.96	0.798
pTyr fixed	0.566	0.549	0.663	0.56	0.893	0.555	0.741	0.842	0.859
